From article PMC8563363

Experiments:
Assay in all cases: EMSA
[1] = molecular target: T1, SMC3 head (Halo-SMC3HD-SCC1(Nt)) (Homo sapiens, UniProt Q9UQE7 1-251+=GGGGG+956-1216+=[…]+O60216:2-75, internal_change)
T1 sequence: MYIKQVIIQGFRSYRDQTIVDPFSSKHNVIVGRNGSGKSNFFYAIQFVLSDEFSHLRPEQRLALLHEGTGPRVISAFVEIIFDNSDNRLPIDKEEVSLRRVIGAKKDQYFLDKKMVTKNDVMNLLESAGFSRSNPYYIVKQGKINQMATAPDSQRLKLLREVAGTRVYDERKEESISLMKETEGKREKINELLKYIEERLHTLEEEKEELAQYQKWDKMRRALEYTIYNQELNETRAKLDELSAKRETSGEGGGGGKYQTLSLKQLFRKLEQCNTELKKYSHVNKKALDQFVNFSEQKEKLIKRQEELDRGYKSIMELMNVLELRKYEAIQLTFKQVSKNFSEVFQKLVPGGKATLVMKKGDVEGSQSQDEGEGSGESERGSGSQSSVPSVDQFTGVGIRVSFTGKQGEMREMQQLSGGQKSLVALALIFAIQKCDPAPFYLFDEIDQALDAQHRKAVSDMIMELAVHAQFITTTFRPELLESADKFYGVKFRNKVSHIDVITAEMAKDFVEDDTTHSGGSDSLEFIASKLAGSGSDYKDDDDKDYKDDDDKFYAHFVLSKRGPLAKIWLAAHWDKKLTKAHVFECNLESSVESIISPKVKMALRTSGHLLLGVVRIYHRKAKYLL

deltaN-STAG1/SCC1(int) = molecular target: T2, deltaN-STAG1/SCC1(int) (Homo sapiens, UniProt Q8WVM7;O60216 71-1258;281-420)
T2 sequence 1: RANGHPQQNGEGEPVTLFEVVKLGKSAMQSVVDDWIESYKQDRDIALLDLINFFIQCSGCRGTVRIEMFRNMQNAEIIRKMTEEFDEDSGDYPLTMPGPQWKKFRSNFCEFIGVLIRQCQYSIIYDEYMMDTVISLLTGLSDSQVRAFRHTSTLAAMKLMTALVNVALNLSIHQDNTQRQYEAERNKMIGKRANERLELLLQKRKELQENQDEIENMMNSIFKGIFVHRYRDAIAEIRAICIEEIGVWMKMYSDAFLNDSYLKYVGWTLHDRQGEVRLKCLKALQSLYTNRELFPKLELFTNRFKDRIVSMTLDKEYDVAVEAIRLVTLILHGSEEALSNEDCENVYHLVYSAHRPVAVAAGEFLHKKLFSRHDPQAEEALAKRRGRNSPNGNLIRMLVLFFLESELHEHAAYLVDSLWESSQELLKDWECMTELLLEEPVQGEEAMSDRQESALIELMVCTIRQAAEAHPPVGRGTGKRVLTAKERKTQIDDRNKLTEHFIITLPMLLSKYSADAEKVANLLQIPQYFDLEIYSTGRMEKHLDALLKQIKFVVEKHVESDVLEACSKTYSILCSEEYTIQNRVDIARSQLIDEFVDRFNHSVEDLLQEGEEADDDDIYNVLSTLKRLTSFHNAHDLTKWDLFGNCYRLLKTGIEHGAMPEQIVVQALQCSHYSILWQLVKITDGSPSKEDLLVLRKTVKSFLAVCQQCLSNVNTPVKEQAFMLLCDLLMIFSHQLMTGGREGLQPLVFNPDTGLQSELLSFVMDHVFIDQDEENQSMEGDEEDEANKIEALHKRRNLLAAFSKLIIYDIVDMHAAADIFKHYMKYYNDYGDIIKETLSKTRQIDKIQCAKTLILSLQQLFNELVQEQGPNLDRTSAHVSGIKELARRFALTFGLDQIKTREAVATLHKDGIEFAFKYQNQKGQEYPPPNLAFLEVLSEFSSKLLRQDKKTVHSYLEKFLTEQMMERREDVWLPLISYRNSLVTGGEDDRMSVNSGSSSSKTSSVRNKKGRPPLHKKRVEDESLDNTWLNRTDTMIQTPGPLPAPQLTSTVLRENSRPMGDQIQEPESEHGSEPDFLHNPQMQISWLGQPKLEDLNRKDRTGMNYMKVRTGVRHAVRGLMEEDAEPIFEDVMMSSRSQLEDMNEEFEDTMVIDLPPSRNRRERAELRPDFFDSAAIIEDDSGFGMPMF
T2 sequence 2: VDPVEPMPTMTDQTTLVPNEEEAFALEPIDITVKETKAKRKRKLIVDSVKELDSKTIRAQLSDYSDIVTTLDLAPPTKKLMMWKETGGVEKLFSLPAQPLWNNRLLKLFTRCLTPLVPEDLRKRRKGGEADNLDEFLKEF

deltaN-NIPBL2A = deltaN-NIPBL2A (Homo sapiens, UniProt Q6KC79 1-21+1041-2804, R1867A;K1870A;internal_change)
hinge (SMC1-SMC3) = hinge (SMC1-SMC3) (Homo sapiens, UniProt Q9UQE7;Q14683 484-696;461-685)
SMC1 head 4E = molecular target: T3, SMC1 head 4E (Homo sapiens, UniProt Q14683;O60216 1-200+=GGGGG+1030-1233;531-631, K52E;R57E;K59E;R62E;internal_change)
T3 sequence 1: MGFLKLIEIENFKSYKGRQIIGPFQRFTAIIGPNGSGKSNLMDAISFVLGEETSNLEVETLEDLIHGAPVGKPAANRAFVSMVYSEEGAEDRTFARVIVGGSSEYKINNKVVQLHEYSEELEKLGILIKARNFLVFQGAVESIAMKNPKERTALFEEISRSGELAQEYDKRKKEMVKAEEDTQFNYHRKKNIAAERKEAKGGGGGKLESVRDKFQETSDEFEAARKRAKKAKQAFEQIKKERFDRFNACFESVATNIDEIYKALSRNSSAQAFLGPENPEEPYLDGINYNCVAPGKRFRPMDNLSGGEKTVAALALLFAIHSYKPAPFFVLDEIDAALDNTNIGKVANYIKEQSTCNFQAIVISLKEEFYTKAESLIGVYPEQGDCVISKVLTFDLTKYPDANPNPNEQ
T3 sequence 2: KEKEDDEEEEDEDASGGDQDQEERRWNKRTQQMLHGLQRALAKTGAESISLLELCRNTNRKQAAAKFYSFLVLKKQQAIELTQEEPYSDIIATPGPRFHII

Sequence of hinge (SMC1-SMC3) (Q9UQE7 484-696, chain 1 of 2): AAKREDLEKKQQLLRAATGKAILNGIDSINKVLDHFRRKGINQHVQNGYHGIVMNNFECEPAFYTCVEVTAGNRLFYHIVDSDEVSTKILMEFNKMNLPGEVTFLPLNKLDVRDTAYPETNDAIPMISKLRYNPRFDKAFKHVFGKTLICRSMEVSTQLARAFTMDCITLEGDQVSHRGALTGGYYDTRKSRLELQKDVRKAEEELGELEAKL
Sequence of hinge (SMC1-SMC3) (Q14683 461-685, chain 2 of 2): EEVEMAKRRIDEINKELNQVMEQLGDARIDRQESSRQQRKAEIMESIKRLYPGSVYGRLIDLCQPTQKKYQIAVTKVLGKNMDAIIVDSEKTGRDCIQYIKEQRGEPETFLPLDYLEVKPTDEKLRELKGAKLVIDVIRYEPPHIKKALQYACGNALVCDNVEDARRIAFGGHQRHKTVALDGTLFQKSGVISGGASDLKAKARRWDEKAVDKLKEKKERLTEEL

B1: 40 bp dsDNA EMSA probe (dsDNA)
DNA 1: GCGGGTAATCCAGAGCCAGACGAGCACTACGAACAACTAA
DNA 2: TTAGTTGTTCGTAGTGCTCGTCTGGCTCTGGATTACCCGC
B1: binds [1]; binds (deltaN-STAG1/SCC1(int)); no binding (deltaN-NIPBL2A). B1: binds (hinge (SMC1-SMC3)); no binding (SMC1 head 4E).
